Results: US20220332804A1 (CSL INNOVATION, published 2022)
Residue numbers refer to the chain shown, from its start.

How the values were obtained:
Experiment in all cases: SPR, KD relative to WT C2;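 further: biacore SPR at 37 °C, anti-C2 mAbs captured on anti-human IgG chips with alanine or serine point mutants of C2 as analyte, KD from 1:1 fit compared with wild-type C2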
human C2 G427A = target: T1, human C2 G427A (human, UniProt P06681 21-752)
T1 sequence: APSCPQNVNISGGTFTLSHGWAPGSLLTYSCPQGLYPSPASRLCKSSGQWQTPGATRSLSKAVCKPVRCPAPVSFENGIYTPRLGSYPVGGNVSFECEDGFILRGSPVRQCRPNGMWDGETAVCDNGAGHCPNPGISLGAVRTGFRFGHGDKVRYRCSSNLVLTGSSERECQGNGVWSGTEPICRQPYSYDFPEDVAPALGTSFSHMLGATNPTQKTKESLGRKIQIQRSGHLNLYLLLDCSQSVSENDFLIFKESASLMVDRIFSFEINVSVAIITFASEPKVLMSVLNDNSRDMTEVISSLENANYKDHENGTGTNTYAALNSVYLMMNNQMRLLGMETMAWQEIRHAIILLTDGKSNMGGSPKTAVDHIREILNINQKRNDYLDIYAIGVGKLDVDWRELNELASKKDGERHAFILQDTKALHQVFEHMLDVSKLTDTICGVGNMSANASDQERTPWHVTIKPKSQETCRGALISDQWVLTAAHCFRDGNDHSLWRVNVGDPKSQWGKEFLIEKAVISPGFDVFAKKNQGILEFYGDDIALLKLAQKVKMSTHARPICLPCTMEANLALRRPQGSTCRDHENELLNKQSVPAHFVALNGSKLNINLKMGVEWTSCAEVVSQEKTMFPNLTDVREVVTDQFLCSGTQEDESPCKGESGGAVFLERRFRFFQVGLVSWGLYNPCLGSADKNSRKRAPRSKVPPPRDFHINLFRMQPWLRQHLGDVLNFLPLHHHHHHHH

human C2 D454A = target: T2, human C2 D454A (human, UniProt P06681 21-752)
T2 sequence: T1 sequence with A407G, D434A

human C2 D419A = target: T3, human C2 D419A (human, UniProt P06681 21-752)
T3 sequence: T1 sequence with D399A, A407G

human C2 A470S = target: T4, human C2 A470S (human, UniProt P06681 21-752)
T4 sequence: T1 sequence with A407G, A450S

B1: RF16-242 (antibody, human IgG4 S228P, lambda, V domains shown)
VH: EVQLLQSGAEVKKPGESLKISCKGSGYSFTSYWIGWVRQMPGKGLEWMGIIYPGDSDTRYSPSFQGQVTISADKSISTAYLQWSSLKASDTAMYYCARRGHYGDYFDYWGQGTLVTVSS
VL: SYELTQPPSVSVSPGQTARITCSGDALPKKYAYWYHQKSGQAPVLVIYEDRRRPSEIPERFSGSSSGTMATLTITGAQVEDEGVYFCYSRDRAGNQRVFGGGTQLTVLG
notes: pH-dependent anti-C2 antibody from a phage display library
Q: Which results are given for B1?
A: Fold diff (human C2 G427A): 1 fold; Fold diff (human C2 D454A): 5 fold; Fold diff (human C2 D419A): 2 fold; Fold diff (human C2 A470S): 1 fold
